These results are taken from patent US7304127.

This assay concerns the target HIV-1LAI envelope gp120 labeled with radioactive iodine (HIV-1 LAI), P03377. Description: 125I-gp120, peptide array.

GLNNCSSSNRLDQAMQVT (modifications not checked) [CCR5 265-282]: the counts minus background (counts per 20 min) was -31.
As to LPLLVMVICYSGILKTLL (modifications not checked) [CCR5 205-222], the counts minus background (counts per 20 min) is 68.
CSSSNRLDQAMQVTETLG (modifications not checked) [CCR5 269-286]: the counts minus background (counts per 20 min) worked out at 90.
As for FWKNFQTLKIVILGLVLP (modifications not checked) [CCR5 189-206], the counts minus background (counts per 20 min) is 40.
With VKQIAARLLPPLYSLVFI (modifications not checked) [CCR5 25-42], the counts minus background (counts per 20 min) was determined as 18.
As to HFPYSQYQFWKNFQTLKI (modifications not checked) [CCR5 181-198], the counts minus background (counts per 20 min) was 1010.
To GSGDYDSMKEPCFREENA (modifications not checked) [CXCR4 17-34] belongs -28; to QEFFGLNNCSSSNRLDQA (modifications not checked) [CCR5 261-278], 63.
Under WVVAVFASLPGIIFTRSQ (modifications not checked) [CCR5 153-170] stands 87; under AKRFCKCCSIFQQEAPER (modifications not checked) [CCR5 317-334], 64; under GLHYTCSSHFPYSQYQFW (modifications not checked) [CCR5 173-190], 301.
Under QEAPERASSVYTRSTGEQ (modifications not checked) [CCR5 329-346] stands 84; under LPTIYSIIFLTGIVGNGL (modifications not checked) [CXCR4 41-58], 118.
As for KEPCFREENANFNKIFLP (modifications not checked) [CXCR4 25-42], the counts minus background (counts per 20 min) was determined as 252.
For the molecule LNTFQEFFGLNNCSSSNR (modifications not checked) [CCR5 257-274], the counts minus background (counts per 20 min) turned out to be 293.
QAMQVTETLGMTHCCINP (modifications not checked) [CCR5 277-294]: the counts minus background (counts per 20 min) is 81.
For ERASSVYTRSTGEQEISV (modifications not checked) [CCR5 333-350], the counts minus background (counts per 20 min) worked out at 84.
In the case of NPIIYAFVGEKFRNYLLV (modifications not checked) [CCR5 293-310], the counts minus background (counts per 20 min) was 162.
QKINVKQIAARLLPPLYS (modifications not checked) [CCR5 21-38]: the counts minus background (counts per 20 min) amounted to 20.
SVITWVVAVFASLPGIIF (modifications not checked) [CCR5 149-166]: the counts minus background (counts per 20 min) was found to be 46.
As for GVVTSVITWVVAVFASLP (modifications not checked) [CCR5 145-162], the counts minus background (counts per 20 min) turned out to be 69.
For LGMTHCCINPIIYAFVGE (modifications not checked) [CCR5 285-302], the counts minus background (counts per 20 min) was determined as 282.
To KIVILGLVLPLLVMVICY (modifications not checked) [CCR5 197-214] belongs 65; to TEEMGSGDYDSMKEPCFR (modifications not checked) [CXCR4 13-30], 41; to TVTFGVVTSVITWVVAVF (modifications not checked) [CCR5 141-158], -25.
To NANFNKIFLPTIYSIIFL (modifications not checked) [CXCR4 33-50] belongs 173.
In the case of LVFFQKHIAKRFCKCCSI (modifications not checked) [CCR5 309-326], the counts minus background (counts per 20 min) came out at 76.
Consider VFASLPGIIFTRSQKEGL (modifications not checked) [CCR5 157-174], for which the counts minus background (counts per 20 min) came out at 54.
AARLLPPLYSLVFIFGFV (modifications not checked) [CCR5 29-46]: the counts minus background (counts per 20 min) was determined as 33.
To SEPCQKINVKQIAARLLP (modifications not checked) [CCR5 17-34] belongs -44; to NRLDQAMQVTETLGMTHC (modifications not checked) [CCR5 273-290], 10.
Take FQTLKIVILGLVLPLLVM (modifications not checked) [CCR5 193-210]: the counts minus background (counts per 20 min) came out at 45.
Take RNYLLVFFQKHIAKRFCK (modifications not checked) [CCR5 305-322]: the counts minus background (counts per 20 min) was found to be 65.
To AVRLIFTIMIVYFLFWAP (modifications not checked) [CCR5 233-250] belongs 62.
On to TCSSHFPYSQYQFWKNFQ (modifications not checked) [CCR5 177-194], for which the counts minus background (counts per 20 min) is 367.
In the case of YAFVGEKFRNYLLVFFQK (modifications not checked) [CCR5 297-314], the counts minus background (counts per 20 min) was determined as 596.
Consider CYSGILKTLLRCRNEKKR (modifications not checked) [CCR5 213-230], for which the counts minus background (counts per 20 min) was 70.
To VTETLGMTHCCINPIIYA (modifications not checked) [CCR5 281-298] belongs 15.
Consider NYYTSEPCQKINVKQIAA (modifications not checked) [CCR5 13-30], for which the counts minus background (counts per 20 min) was found to be 6.
Regarding CKCCSIFQQEAPERASSV (modifications not checked) [CCR5 321-338], the counts minus background (counts per 20 min) was determined as 53.
Regarding LPPLYSLVFIFGFVGNML (modifications not checked) [CCR5 33-50], the counts minus background (counts per 20 min) is 705.
On to APYNIVLLLNTFQEFFGL (modifications not checked) [CCR5 249-266], for which the counts minus background (counts per 20 min) was found to be 1960.
To YDSMKEPCFREENANFNK (modifications not checked) [CXCR4 21-38] belongs 53.
NKIFLPTIYSIIFLTGIV (modifications not checked) [CXCR4 37-54]: the counts minus background (counts per 20 min) was found to be 138.
For IVLLLNTFQEFFGLNNCS (modifications not checked) [CCR5 253-270], the counts minus background (counts per 20 min) worked out at 2130.
Turning to HCCINPIIYAFVGEKFRN (modifications not checked) [CCR5 289-306], the counts minus background (counts per 20 min) was determined as 200.
For the molecule SVYTRSTGEQEISVGL (modifications not checked) [CCR5 337-352], the counts minus background (counts per 20 min) came to 47.
Under SQYQFWKNFQTLKIVILG (modifications not checked) [CCR5 185-202] stands 1570; under RNEKKRHRAVRLIFTIMI (modifications not checked) [CCR5 225-242], 23.
To FREENANFNKIFLPTIYS (modifications not checked) [CXCR4 29-46] belongs 51; to QKHIAKRFCKCCSIFQQE (modifications not checked) [CCR5 313-330], 23.
Under VMVICYSGILKTLLRCRN (modifications not checked) [CCR5 209-226] stands -8; under ILKTLLRCRNEKKRHRAV (modifications not checked) [CCR5 217-234], 19.
For FLFWAPYNIVLLLNTFQE (modifications not checked) [CCR5 245-262], the counts minus background (counts per 20 min) was determined as 616.
To MEGISIYTSDNYTEEMGS (modifications not checked) [CXCR4 1-18] belongs 2590; to KRHRAVRLIFTIMIVYFL (modifications not checked) [CCR5 229-246], 36; to SIYTSDNYTEEMGSGDYD (modifications not checked) [CXCR4 5-22], 71.
GEKFRNYLLVFFQKHIAK (modifications not checked) [CCR5 301-318]: the counts minus background (counts per 20 min) worked out at 69.
For the molecule SDNYTEEMGSGDYDSMKE (modifications not checked) [CXCR4 9-26], the counts minus background (counts per 20 min) amounted to 43.
In the case of SQKEGLHYTCSSHFPYSQ (modifications not checked) [CCR5 169-186], the counts minus background (counts per 20 min) came out at 304.
